The values that follow come from article PMC8913300 (2022).

Test [1] concerns the target T1, C terminus of Hsc70 interacting protein (CHIP) (human, UniProt Q9UNE7 1-303).
T1 chain: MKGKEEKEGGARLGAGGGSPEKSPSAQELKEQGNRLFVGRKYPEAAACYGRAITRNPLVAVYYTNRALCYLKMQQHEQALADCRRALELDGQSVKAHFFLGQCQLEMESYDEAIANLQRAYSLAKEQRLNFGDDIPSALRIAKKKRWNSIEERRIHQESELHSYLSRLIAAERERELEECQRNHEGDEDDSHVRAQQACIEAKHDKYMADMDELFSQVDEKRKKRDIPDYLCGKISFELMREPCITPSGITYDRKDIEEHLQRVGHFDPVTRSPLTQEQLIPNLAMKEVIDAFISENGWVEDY
Description: FP.

A further test addresses DnaJB4 (human, UniProt Q9UDY4 1-337). Description: FP.

No end group written: not given here.

DnaJB4, sequence (Q9UDY4 whole entry): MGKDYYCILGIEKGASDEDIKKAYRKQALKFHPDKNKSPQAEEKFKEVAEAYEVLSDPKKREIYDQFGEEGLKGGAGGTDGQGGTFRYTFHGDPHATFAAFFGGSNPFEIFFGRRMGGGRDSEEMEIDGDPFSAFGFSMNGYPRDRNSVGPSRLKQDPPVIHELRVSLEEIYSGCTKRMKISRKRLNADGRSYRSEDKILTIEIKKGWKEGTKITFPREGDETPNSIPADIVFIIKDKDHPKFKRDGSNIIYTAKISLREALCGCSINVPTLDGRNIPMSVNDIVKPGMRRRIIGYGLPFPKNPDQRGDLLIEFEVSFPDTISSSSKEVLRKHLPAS

In test [1], GSGPTIEEVD-OH (not fully specified (N-terminus); printed as FITC-Ahx-GSGPTIEEVD) [Hsp72 tracer FITC-Ahx-GSGPTIEEVD] registered a dissociation constant (Kd) of 1.05 µM.
Take GSGPEIEEVD-OH (not fully specified (N-terminus); printed as FITC-Ahx-GSGPEIEEVD) [Hsp72 T636E tracer FITC-Ahx-GSGPEIEEVD]: the Kd in test [1] is 5.04 µM; with DnaJB4, 1.76 µM.
